Experimental findings from paper doi:10.1101/2023.06.16.545277, “VAMP2 regulates phase separation of alpha-synuclein” (bioRxiv, 2023) are described below.

The target of this assay is wild-type human full-length alpha-synuclein (human, UniProt P37840 1-140). The experiment in a line: NMR titration; 1H-15N-BEST-TROSY chemical shift perturbation; 40 μM 15N-labelled aSYN fixed, peptide titrated; 20 mM phosphate buffer, pH 7.0, 10% 2H2O, 298 K. Particulars: both partners purified.

B1: JMD long peptide (peptide)
peptide: KLKRKYWWKNLKMM
notes: VAMP2, full length of the juxtamembrane (JM) domain, aa 83-96; also called native JMD long peptide; JM-domain of VAMP2, aa 83-96; source: synthetic peptide (custom synthesis, Proteogenix)
In the case of B1, the binding result is given as “binds”.
